Target: microtubules (polymerised α/β-tubulin) (UniProt Q6B856)
Sequence of UniProt Q6B856 (Q6B856 whole entry, looked up): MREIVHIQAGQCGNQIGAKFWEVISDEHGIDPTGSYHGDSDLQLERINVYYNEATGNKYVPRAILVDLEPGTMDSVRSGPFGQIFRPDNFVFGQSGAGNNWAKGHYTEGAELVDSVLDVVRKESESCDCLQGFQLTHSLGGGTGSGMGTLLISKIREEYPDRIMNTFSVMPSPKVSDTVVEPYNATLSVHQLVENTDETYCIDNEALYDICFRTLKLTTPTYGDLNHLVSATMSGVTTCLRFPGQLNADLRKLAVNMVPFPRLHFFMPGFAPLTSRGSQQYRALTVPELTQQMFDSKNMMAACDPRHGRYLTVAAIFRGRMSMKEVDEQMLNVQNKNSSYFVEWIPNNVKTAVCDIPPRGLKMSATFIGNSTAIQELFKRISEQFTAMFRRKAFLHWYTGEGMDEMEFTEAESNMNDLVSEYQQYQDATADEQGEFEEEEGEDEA

width of bundles of GMpCpp-stabilized rhodamine-labeled MTs (100 nM) after 2 min with 4 μM CEN, TIRF microscopy (single GMpCpp MTs measure 0.34 μm): 0.46 μm
Substance: human CEN subcomplex with wild-type Borealin (CEN-Borealin^wt) (from UniProt Q9NQS7 1-58; O15392 1-142; Q53HL2 1-280)

From publication PMC10876603
